In patent US20210181204A1 (SYNGENTA PARTICIPATIONS, published 2021):
Where a chain is given by its changes, count along the chain named. Names may count otherwise.

Columns and labels:
[1] = molecular target: T1, Cry1Ab insecticidal protein (Bacillus thuringiensis, UniProt P0A370 1-615); experiment: direct ELISA: protein coated at 500 ng/ml, 10 nM tagged synNAPS with SA-AP
[2] = molecular target: Cry1Ab.1Ca insecticidal protein; experiment: as above
[3] = molecular target: Cry1Ai insecticidal protein; experiment: direct ELISA, coated protein, SA-AP, 405 nm
[4] = molecular target: eCry3.1Ab hybrid insecticidal protein; experiment: direct ELISA, coated protein, SA-AP, 405 nm
[5] = molecular target: T2, mCry3A insecticidal protein (Bacillus thuringiensis subsp. …, UniProt P0A379 48-644, limits assumed); experiment: direct ELISA, coated protein, SA-AP, 405 nm
T2 construct: also called modified Cry3A
T2 sequence: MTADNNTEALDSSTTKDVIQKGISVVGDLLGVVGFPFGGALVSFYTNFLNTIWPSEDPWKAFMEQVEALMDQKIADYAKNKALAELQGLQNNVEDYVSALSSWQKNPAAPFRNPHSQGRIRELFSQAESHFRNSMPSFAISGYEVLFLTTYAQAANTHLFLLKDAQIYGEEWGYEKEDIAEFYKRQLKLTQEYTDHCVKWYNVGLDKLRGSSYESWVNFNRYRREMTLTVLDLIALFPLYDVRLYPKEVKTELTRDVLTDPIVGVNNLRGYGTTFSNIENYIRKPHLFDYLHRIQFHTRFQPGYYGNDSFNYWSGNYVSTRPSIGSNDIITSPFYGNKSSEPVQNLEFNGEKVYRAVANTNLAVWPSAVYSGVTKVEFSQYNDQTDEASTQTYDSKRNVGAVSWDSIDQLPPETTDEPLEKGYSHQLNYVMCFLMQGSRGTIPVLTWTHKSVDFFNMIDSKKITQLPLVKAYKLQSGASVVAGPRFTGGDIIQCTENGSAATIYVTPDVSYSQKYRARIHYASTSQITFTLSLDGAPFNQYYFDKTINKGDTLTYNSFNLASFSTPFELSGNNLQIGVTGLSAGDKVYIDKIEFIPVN

[6] = molecular target: T3, Cry1Aa insecticidal protein (Bacillus thuringiensis subsp. aizawai, UniProt P0A367 12-1176); experiment: direct ELISA, coated protein, SA-AP, 405 nm
[7] = molecular target: T1, Cry1Ab insecticidal protein; experiment: sandwich ELISA: synNAPS on streptavidin plate, HRP-antibody detection; Cry1Ab 10 ng/ml
[8] = molecular target: T2, mCry3A insecticidal protein; experiment: sandwich ELISA: synNAPS on streptavidin plate, HRP-antibody detection; mCry3A 60 ng/ml
[9] = molecular target: T1, Cry1Ab insecticidal protein; experiment: direct ELISA, coated protein, SA-AP, 405 nm
[10] = molecular target: Cry1Ab.1Ca insecticidal protein; experiment: direct ELISA, coated protein, SA-AP, 405 nm
[11] = molecular target: T2, mCry3A insecticidal protein; experiment: affinity capture on synNAPS-13 streptavidin beads from corn leaf extract, eluate measured by ELISA
[12] = molecular target: T2, mCry3A insecticidal protein; experiment: direct ELISA: protein coated at 500 ng/ml, 10 nM tagged synNAPS with SA-AP
[13] = molecular target: Cry1Ai insecticidal protein; experiment: as above
[14] = molecular target: eCry3.1Ab hybrid insecticidal protein; experiment: direct ELISA: eCry3.1Ab coated at 1 ug/ml, RGS-His HRP detection
[15] = molecular target: T1, Cry1Ab insecticidal protein; experiment: direct binding ELISA with leaf extracts expressing synNAPS-13, A405
[16] = molecular target: T2, mCry3A insecticidal protein; experiment: as above
[17] = molecular target: T2, mCry3A insecticidal protein; experiment: direct ELISA: mCry3A coated at 1 ug/ml, RGS-His HRP detection
[18] = molecular target: T2, mCry3A insecticidal protein; experiment: direct ELISA on coated mCry3A
[19] = molecular target: eCry3.1Ab hybrid insecticidal protein; experiment: direct ELISA: protein coated at 500 ng/ml, 10 nM tagged synNAPS with SA-AP
[20] = molecular target: T3, Cry1Aa insecticidal protein; experiment: as above

B1: synNAPS-5tag ligand (designed binder)
chain: MRGSHHHHHHGSVKVKFVLKGEEKEVDTSKITYVARYGKFVQFDYDDNGKFGAGVVLEKDAPKELLDMLARAEREKKLGSGLNDIFEAQKIEWH
modifications: in vivo biotinylation (E. coli BirA strain) on the C-terminal avidin-tag
notes: also called tagged synNAPS 5
[1]
  Binding to Insecticidal Protein (read at 405 nm): 1.1 absorbance 405 nm
[2]
  Binding to Insecticidal Protein (read at 405 nm): 1.6 absorbance 405 nm
[3]
  binding result: no binding (tested: 10 nM)
[4]
  binding result: no binding (tested: 10 nM)
[5]
  binding result: no binding (tested: 10 nM)
[6]
  binding result: no binding (tested: 10 nM)

B2: synNAPS-13tag ligand (designed binder)
chain: MRGSHHHHHHGSVKVKFKRWGEEKEVDTSKILHVLRVGKYVRFSYDDNGKLGAGYVTEKDAPKELLDMLARAEREKKLGSGLNDIFEAQKIEWH
modifications: in vivo biotinylation (E. coli BirA strain) on the C-terminal avidin-tag
notes: also called tagged synNAPS 13
[7]
  Absorbance at protein concentration (ng/ml): 0 absorbance 450 nm
[8]
  Absorbance at protein concentration (ng/ml): 0 absorbance 450 nm
[3]
  binding result: no binding (tested: 10 nM)
[9]
  binding result: no binding (tested: 10 nM)
[5]
  binding result: no binding (tested: 10 nM)
[10]
  binding result: no binding (tested: 10 nM)
[6]
  binding result: no binding (tested: 10 nM)
[11]
  Quantity of Protein (ng/ml) eluted from synNAPS-13 beads: 0 ng/mL

B3: synNAPS-9tag ligand (designed binder)
chain: MRGSHHHHHHGSVKVKFAQGGEEKEVDTSKIYRVPRHGKIVFFMYDDNGKGGFGHVTEKDAPKELLDMLARAEREKKLGSGLNDIFEAQKIEWH
modifications: in vivo biotinylation (E. coli BirA strain) on the C-terminal avidin-tag
notes: also called NsynNAPS9; tagged synNAPS 9
[7]
  Absorbance at protein concentration (ng/ml): 0 absorbance 450 nm
[12]
  Binding to Insecticidal Protein (read at 405 nm): 0.7 absorbance 405 nm
[8]
  Absorbance at protein concentration (ng/ml): 2 absorbance 450 nm
[3]
  binding result: no binding (tested: 10 nM)
[4]
  binding result: no binding (tested: 10 nM)
[9]
  binding result: no binding (tested: 10 nM)
[10]
  binding result: no binding (tested: 10 nM)
[6]
  binding result: no binding (tested: 10 nM)

B4: synNAPS-2tag ligand (designed binder)
chain: MRGSHHHHHHGSVKVKFKYKGEEKEVDTSKIVWIGRFGKSVYFRYDDNGKTGAGRVYEKDAPKELLDMLARAEREKKLGSGLNDIFEAQKIEWH
modifications: in vivo biotinylation (E. coli BirA strain) on the C-terminal avidin-tag
notes: also called tagged synNAPS 2
[7]
  Absorbance at protein concentration (ng/ml): 4 absorbance 450 nm
[13]
  Binding to Insecticidal Protein (read at 405 nm): 2.5 absorbance 405 nm
[1]
  Binding to Insecticidal Protein (read at 405 nm): 1.8 absorbance 405 nm
[2]
  Binding to Insecticidal Protein (read at 405 nm): 1 absorbance 405 nm
[8]
  Absorbance at protein concentration (ng/ml): 0 absorbance 450 nm
[4]
  binding result: no binding (tested: 10 nM)
[5]
  binding result: no binding (tested: 10 nM)
[6]
  binding result: no binding (tested: 10 nM)

B5: synNAPS-4tag ligand (designed binder)
chain: B4 chain with V32S, W33Y, I34V, G35Q, F37A, R44N, A53G, Y57F
modifications: in vivo biotinylation (E. coli BirA strain) on the C-terminal avidin-tag
notes: also called tagged synNAPS 4
[13]
  Binding to Insecticidal Protein (read at 405 nm): 2.6 absorbance 405 nm
[1]
  Binding to Insecticidal Protein (read at 405 nm): 1.75 absorbance 405 nm
[2]
  Binding to Insecticidal Protein (read at 405 nm): 0.75 absorbance 405 nm
[4]
  binding result: no binding (tested: 10 nM)
[5]
  binding result: no binding (tested: 10 nM)
[6]
  binding result: no binding (tested: 10 nM)

B6: synNAPS-13 ligand (designed binder)
chain: MVKVKFKRWGEEKEVDTSKILHVLRVGKYVRFSYDDNGKLGAGYVTEKDAPKELLDMLARAEREKK
[14]
  Binding (OD 450 nm): 4.1 OD 450 nm
[15]
  binding result: no binding
[16]
  binding result: no binding

B7: synNAPS9 variant T46A (designed binder)
chain: RGSHHHHHHGSMVKVKFAQGGEEKEVDTSKIYRVPRHGKIVFFMYDDNGKGGFGHVAEKDAPKELLDMLARAEREKK
[17]
  Binding (OD 450 nm): 2.8 OD 450 nm
[18]
  binding affinity as percent of SEQ ID NO:17: ~112%

B8: synNAPS-11tag ligand (designed binder)
chain: MRGSHHHHHHGSVKVKFGLGGEEKEVDTSKIRRVLRLGKLVSFTYDDNGKIGLGDVHEKDAPKELLDMLARAEREKKLGSGLNDIFEAQKIEWH
modifications: in vivo biotinylation (E. coli BirA strain) on the C-terminal avidin-tag
notes: also called tagged synNAPS 11
[13]
  Binding to Insecticidal Protein (read at 405 nm): 0.7 absorbance 405 nm
[19]
  Binding to Insecticidal Protein (read at 405 nm): 1.5 absorbance 405 nm
[12]
  Binding to Insecticidal Protein (read at 405 nm): 2.9 absorbance 405 nm
[20]
  Binding to Insecticidal Protein (read at 405 nm): 0.6 absorbance 405 nm
[9]
  binding result: no binding (tested: 10 nM)
[10]
  binding result: no binding (tested: 10 nM)
